Test results from the supplement of paper PMC9732359.
± gives the uncertainty stated by the source.

Experiment: protein stability index of a GFP-peptide fusion (yeast GPS) (PSI 1-4); higher = more stable; sorted into four equal gates, so the index is relative within each strain
Summary of the method: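 Sequencing reads from sorted gates were used to score each peptide. The library consisted of tiled 17-residue yeast protein peptides fused downstream of GFP on a Cherry-expressing plasmid, pooled and carried in yeast. Mid-log cultures in leucine-free medium were split into four equal gates by GFP/Cherry ratio, and each gate's plasmids were PCR-amplified and Illumina-sequenced. The protein stability index adds up, over all gates, the read frequency multiplied by the gate number.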

Sequence | protein stability index (doa10∆) | protein stability index (pdr5∆) | protein stability index (san1∆) | protein stability index (ubr1∆)
LSHENNVMLEKIKDNKE [RPT5] | 2.49 ± 0.063 | 2.9 ± 0.054 | 2.46 ± 0.054 | 2.71 ± 0.045
LRQQQQQQDQPEQSEQP [RPN10] | 3.21 ± 0.09 | 3.28 ± 0.076 | 2.74 ± 0.081 | 3.17 ± 0.064
IDDKTQNDELTMGMRAL [DIS3] | 2.74 ± 0.083 | 2.83 ± 0.068 | 2.87 ± 0.058 | 3 ± 0.059
RKEPPATVEECVKLTVR [PRE6] | 1.45 ± 0.06 | 1.67 ± 0.074 | 1.7 ± 0.2 | 1.43 ± 0.055
QTPAEKHAFMGTLKKDL [RPL3] | 3.08 ± 0.17 | 3.21 ± 0.062 | 2.96 ± 0.11 | 2.96 ± 0.093
SNFTSIIGPNGSGKSNM [SMC1] | 3.33 ± 0.13 | 3.04 ± 0.15 | 3.37 ± 0.12 | 3.46 ± 0.093
SSSKSMINDENYIINDI [SRB8] | 2.92 ± 0.064 | 2.82 ± 0.052 | 2.63 ± 0.074 | 2.83 ± 0.04
RHHRKTEKEEDAELMAD [ISW2] | 3.5 ± 0.13 | 3.31 ± 0.11 | 3.15 ± 0.091 | 3.32 ± 0.089
QPVNPKPFLKGLVNHRV [SMX3] | 3.07 ± 0.054 | 3.09 ± 0.057 | 3.16 ± 0.041 | 3.06 ± 0.055
HGINLQNKKNLKWVAVV [SSN2] | 2.98 ± 0.066 | 3.11 ± 0.051 | 3.05 ± 0.057 | 3.23 ± 0.057
KLRSELGYKDTSVIQDL [BRR2] | 2.74 ± 0.13 | 2.22 ± 0.083 | 2.69 ± 0.072 | 2.96 ± 0.083
LDTQLNDLRVSLNEKNA [SMC1] | 3.03 ± 0.11 | 3.13 ± 0.082 | 3.41 ± 0.064 | 3.14 ± 0.09
GVWDVDNPLRQIPHFNN [BRR2] | 3.26 ± 0.077 | 3.24 ± 0.083 | 3.26 ± 0.065 | 3.13 ± 0.07
SLQYINIRGNTIRQIIL [SMD1] | 3.15 ± 0.097 | 3.26 ± 0.085 | 2.73 ± 0.1 | 2.94 ± 0.065
ILKRDFELVSDLSYIEF [ECM29] | 2.54 ± 0.079 | 2.67 ± 0.078 | 2.58 ± 0.072 | 2.76 ± 0.054
LNSFVNDIFERIATEAS [HTB1] | 2.95 ± 0.11 | 2.89 ± 0.091 | 2.63 ± 0.1 | 2.96 ± 0.061
YATKLSKFTKIPPTFDK [MED4] | 3.08 ± 0.089 | 3.28 ± 0.084 | 3.29 ± 0.08 | 2.87 ± 0.14
NVEESVSKADILLSHHR [POP5] | 3.16 ± 0.19 | – | 2.91 ± 0.086 | 3.03 ± 0.1
LIETVRQMKDVNAPLPT [RPN2] | 3.12 ± 0.055 | 3.12 ± 0.051 | 2.9 ± 0.05 | 3.04 ± 0.036
KIDIIELQKSLSLEEVE [FAS1] | 2.92 ± 0.14 | 2.62 ± 0.15 | 2.52 ± 0.077 | 2.79 ± 0.088
DIISGKIHSILPVMESL [YJR042W/NUP85] | 2.85 ± 0.074 | 3.13 ± 0.11 | 2.84 ± 0.11 | 2.4 ± 0.062
RERDITSLFHKFILSGF [RRI2] | 1.71 ± 0.048 | 2.07 ± 0.045 | 2.23 ± 0.063 | 2.09 ± 0.049
EAIETCKNFEKTQLGST [GAL11] | 2.51 ± 0.13 | 3.1 ± 0.19 | – | 3.36 ± 0.24
FGTGKRLAKKVARRNAD [RPS24A] | 3.46 ± 0.062 | 3.31 ± 0.055 | 3.1 ± 0.04 | 3.31 ± 0.039
LIITRKAFKNNSSKYYI [SMC4] | 2.59 ± 0.083 | 2.98 ± 0.092 | 2.66 ± 0.068 | 2.69 ± 0.11
LIYGISDEERDDEDDEH [AAR2] | 3.22 ± 0.11 | 3.05 ± 0.097 | 3.52 ± 0.066 | 3.06 ± 0.099

Sequence | protein stability index (doa10∆) | protein stability index (pdr5∆) | protein stability index (san1∆) | protein stability index (ubr1∆)
IKIFELKLPADATTWRY [IRR1] | 2.03 ± 0.056 | 2.06 ± 0.049 | 2.26 ± 0.08 | 2.39 ± 0.046
FRKIKLRVDEVQGKNLL [RPS1A] | 2.96 ± 0.12 | 3.48 ± 0.12 | 2.93 ± 0.13 | 3.36 ± 0.065
SSTPKFTKKPVTPNDKI [SIR4] | 2.96 ± 0.11 | 2.89 ± 0.07 | 2.96 ± 0.062 | 3.08 ± 0.054
KPQLKFKSPIDNSESHP [RRP6] | 2.77 ± 0.083 | 3.06 ± 0.06 | 2.89 ± 0.084 | 3.12 ± 0.034
YPFLLSFLGEAKSMAFL [YML103C/NUP188] | 2.18 ± 0.084 | 2.35 ± 0.067 | 2.29 ± 0.11 | 2.38 ± 0.048
NAQSKLSLTLNTHYHAD [SNF2] | 2.76 ± 0.096 | 2.81 ± 0.11 | 2.73 ± 0.13 | 3.09 ± 0.085
GVVQMVTDNKTPEMNVT [TAF14] | 2.78 ± 0.16 | 2.67 ± 0.22 | 3.33 ± 0.092 | –
LTTQFVTDKYTAKKTNR [YDL088C/ASM4] | 2.74 ± 0.14 | 2.83 ± 0.093 | – | 2.8 ± 0.11
ITIDSVVDANGCVNSLI [YMR129W/POM152] | 3.01 ± 0.11 | 2.91 ± 0.09 | 3.05 ± 0.055 | 2.8 ± 0.06
TYVEELFPIVKKHGKTD [YJL039C/NUP192] | 3.33 ± 0.14 | 3.44 ± 0.11 | 3.32 ± 0.12 | 3.19 ± 0.091
GIDPQDLKKLNLNVYIQ [CDC53] | 1.68 ± 0.14 | 1.7 ± 0.12 | 1.42 ± 0.1 | 1.19 ± 0.083
VSPNISSASPSALTSPT [SIR3] | 2.45 ± 0.056 | 2.78 ± 0.074 | 2.95 ± 0.06 | 2.53 ± 0.04
LSLTTVPCDRIEKSRLF [SNF6] | 2.51 ± 0.065 | 2.64 ± 0.076 | 2.66 ± 0.053 | 2.29 ± 0.044
QIIVTDGKLEPSTRSNF [YJL039C/NUP192] | 2.38 ± 0.099 | 3.13 ± 0.13 | 2.88 ± 0.11 | 3.32 ± 0.18
DSSSVSEDSAVFKATSS [FAS1] | 3 ± 0.089 | 3.32 ± 0.096 | 2.98 ± 0.065 | 3.14 ± 0.083
LIRPSSKVIIKFLQVMQ [RPS22A] | 1.86 ± 0.036 | 1.82 ± 0.03 | 2.02 ± 0.052 | 2.25 ± 0.034
NLINLSIGASIADLASL [YCS4] | 2.45 ± 0.055 | 2.44 ± 0.052 | 2.39 ± 0.071 | 2.69 ± 0.042
LLKDDTYQLCVRLRSNV [RPN3] | 1.47 ± 0.076 | 1.85 ± 0.29 | – | 1.25 ± 0.2
PTKAAQRARDQDSIDIS [GAL11] | 3.21 ± 0.094 | 3.16 ± 0.081 | 3.36 ± 0.077 | 3.22 ± 0.073
INYQVDSKLLPKNIEPP [SWI3] | 2.92 ± 0.083 | 2.81 ± 0.1 | 2.58 ± 0.064 | 2.65 ± 0.066
THKVTDIYSHEYKVITS [YMR129W/POM152] | 1.71 ± 0.065 | 1.97 ± 0.082 | 2.38 ± 0.089 | 2.13 ± 0.064
DNPLRQIPHFNNKILEK [BRR2] | 3.08 ± 0.092 | 3.1 ± 0.084 | 3.08 ± 0.086 | 3.19 ± 0.08
NGFHGRLGDLGVIDDSF [SMC4] | 3.51 ± 0.17 | 3.35 ± 0.11 | 3.11 ± 0.12 | 3.46 ± 0.057
LAVFLFDIYNRDRKLIT [YJL039C/NUP192] | 1.98 ± 0.2 | 1.46 ± 0.13 | – | –
HSFAVLLHERKLLNDLA [NUT1] | 2.68 ± 0.049 | 2.49 ± 0.057 | 2.46 ± 0.086 | 2.71 ± 0.036
